Where “and” joins values, the source holds several entries; their conditions need not be identical. Equal entries are not always repeated.
Conditions: Homo sapiens, pH 8.7, Thermal, DSC, reversible: yes, whole UniProt chain shown

B1: Alpha-2-macroglobulin receptor-associated protein wild type, P30533 (protein)
chain: MAPRRVRSFLRGLPALLLLLLFLGPWPAASHGGKYSREKNQPKPSPKRESGEEFRMEKLNQLWEKAQRLHLPPVRLAELHADLKIQERDELAWKKLKLDGLDEDGEKEARLIRNLNVILAKYGLDGKKDARQVTSNSLSGTQEDGLDDPRLEKLWHKAKTSGKFSGEELDKLWREFLHHKEKVHEYNVLLETLSRTEEIHENVISPSDLSDIKGSVLHSRHTELKEKLRSINQGLDRLRRVSHQGYSTEAEFEEPRVIDLWDLAQSANLTDKELEAFREELKHFEAKIEKHNHYQKQLEIAHEKLRHAESVGDGERVSRSREKHALLEGRTKELGYTVKKHLQDLSGRISRARHNEL
Tm (Gly 20 mM, transition: 2): 65.8 °C
unfolding enthalpy (calorimetric) (Gly 20 mM, transition: 2): 56 kcal/mol
unfolding enthalpy (calorimetric) (Glycine 20 mM, transition: 2): 45 kcal/mol and 41 kcal/mol and 59 kcal/mol
unfolding enthalpy (calorimetric) (Glycine 20 mM, transition: 4): 42 kcal/mol and 41 kcal/mol

— FireProtDB (doi:10.1074/jbc.274.2.717)
